What all share (assay): fluorescence polarisation
In general terms: In fluorescence polarisation assays a small probe gives low polarisation when free and higher when bound to something large.

For experiment [1], the target named is T1, WRFVQELASKEVC-fluorescein peptide.
T1 peptide: WRFVQELASKEVC(fluorescein‑5‑maleimide)

For experiment [2], the target named is T2, YRFVQELASKEVC-fluorescein peptide.
T2 peptide: YRFVQELASKEVC(fluorescein‑5‑maleimide)

In experiment [3] the target is T3, FRFVQELASKEVC-fluorescein peptide.
T3 peptide: FRFVQELASKEVC(fluorescein‑5‑maleimide)

Experiment [4] concerns the target T4, A. tumefaciens ClpS2 (A. tumefaciens, UniProt Q8UD95 1-103, 35S-labeled in the peptide blots only).
T4 sequence (looked up): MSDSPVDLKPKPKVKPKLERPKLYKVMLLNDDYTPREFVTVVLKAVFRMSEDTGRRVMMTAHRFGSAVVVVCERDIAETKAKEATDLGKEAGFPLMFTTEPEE

For orientation: Kd means the equilibrium constant for the complex coming apart.

Positions count from the first letter of the chain named. Names may count otherwise. Ends that are not written are not given here. Some results are limits rather than exact numbers.

B1: A. tumefaciens ClpS2 L28A (natural protein)
chain: T4 sequence (looked up) with L28A
Turning to B1, the “ΔΔG against parent ClpS2” value is 0.3 kcal/mol in experiment [1], -0.26 kcal/mol in experiment [2] and 0.91 kcal/mol in experiment [3].
As to LRFVQELASKEVC(fluorescein‑5‑maleimide) [LRFVQELASKEVC-fluorescein peptide], the Kd in experiment [4] was above 800 µM.

B2: A. tumefaciens ClpS2 R36M (natural protein)
chain: T4 sequence (looked up) with R36M
In the case of B2, the “ΔΔG against parent ClpS2” value is -0.3 kcal/mol in experiment [1], -0.74 kcal/mol in experiment [2] and -0.17 kcal/mol in experiment [3].

The record behind these values is article PMC4979544 (Structure (London, England : 1993), 2016).
